Test results: the supplement of paper PMC10598134
± gives the standard deviation.

Experiment: collision cross section of modified peptide (TIMS, N2, iRT-aligned); higher = larger / more extended gas-phase ion
Method in brief: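 On a timsTOF Pro/HT (dda-PASEF, nitrogen, ~2.4 mbar), synthetic peptide pools were analysed after a 120-min nanoflow C18 separation at 60 °C and identified in MaxQuant. Three reference ions served for 1/K0 calibration, with run-wise alignment to the median iRT peptide deviation. Collision cross section comes from the Mason-Schamp equation, using the most abundant feature per charge state averaged over 1–3 technical replicates.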

[1] = charge state: 2, modification: Phospho (Y)
[2] = charge state: 3, modification: Trimethyl (K)
[3] = charge state: 2, modification: Succinyl
[4] = charge state: 3, modification: Succinyl
[5] = charge state: 2, modification: Dimethyl (K)
[6] = charge state: 3, modification: Dimethyl (K)
[7] = charge state: 2, modification: Butyryl
[8] = charge state: 2, modification: Nitro (Y)
[9] = charge state: 2, modification: hydroxyisobutyryl
[10] = charge state: 3, modification: hydroxyisobutyryl
[11] = charge state: 2, modification: Methyl (R)
[12] = charge state: 3, modification: Methyl (R)
[13] = charge state: 2, modification: Malonyl
[14] = charge state: 2, modification: Crotonyl

Sequence: VTLEVGKVIQQGR [_VTLEVGK(Methyl (K))VIQQGR_]
- collision cross section (charge state: 2, modification: Methyl (K)): 428.74 ± 1.9 Å²
- collision cross section (charge state: 3, modification: Methyl (K)): 464.87 ± 3.7 Å²

Sequence: YTAQVDAEEK [_Y(Phospho (Y))TAQVDAEEK_]
- collision cross section [1]: 361.18 ± 0.78 Å²

Sequence: ASNAAVKLAESK [_ASNAAVK(Trimethyl (K))LAESK_]
- collision cross section (charge state: 2, modification: Trimethyl (K)): 392.01 ± 0.62 Å²
- collision cross section [2]: 456.46 ± 2.4 Å²

Sequence: SGKFTQQDIDEAK [_SGK(Gluratylation)FTQQDIDEAK_]
- collision cross section (charge state: 2, modification: Glutarylation): 415.95 ± 0.14 Å²

Sequence: DVNAAIAAIKTK [_DVNAAIAAIK(Succinyl)TK_]
- collision cross section [3]: 407.52 ± 0.54 Å²
- collision cross section [4]: 461.32 Å²

Sequence: TLDEILQEKK [_TLDEILQEK(Dimethyl (K))K_]
- collision cross section [5]: 379.42 ± 0.37 Å²
- collision cross section [6]: 430.63 ± 2 Å²

Sequence: DTGEKLTVAENEAETK [_DTGEK(Butyryl)LTVAENEAETK_]
- collision cross section [7]: 448.65 ± 0.25 Å²

Sequence: AYDATHLVK [_AY(Nitro (Y))DATHLVK_]
- collision cross section [8]: 358.23 ± 0.55 Å²
- collision cross section (charge state: 3, modification: Nitro (Y)): 417.35 Å²

Sequence: SLEEEGAAHSGKR [_SLEEEGAAHSGK(hydroxyisobutyryl)R_]
- collision cross section [9]: 421.1 ± 1.9 Å²
- collision cross section [10]: 479.68 ± 2.1 Å²

Sequence: HGVYNPNK [_HGVY(Nitro (Y))NPNK_]
- collision cross section [8]: 338.11 ± 3.3 Å²

Sequence: VGLQVVAVKAPGFGDNR [_VGLQVVAVK(Butyryl)APGFGDNR_]
- collision cross section [7]: 450.45 ± 0.52 Å²
- collision cross section (charge state: 3, modification: Butyryl): 500.38 ± 1.9 Å²

Sequence: IVFSGNLFQHQEDSKK [_IVFSGNLFQHQEDSK(Trimethyl (K))K_]
- collision cross section [2]: 536.81 ± 0.89 Å²

Sequence: AAINQKLIETGER [_AAINQK(Succinyl)LIETGER_]
- collision cross section [3]: 409.41 ± 0.25 Å²
- collision cross section [4]: 475.95 ± 0.68 Å²

Sequence: RLPNVHGR [_R(Methyl (R))LPNVHGR_]
- collision cross section [11]: 332.28 ± 1.8 Å²
- collision cross section [12]: 421.48 ± 3.9 Å²

Sequence: VYPSSLSK [_VY(Phospho (Y))PSSLSK_]
- collision cross section [1]: 344.53 ± 0.066 Å²

Sequence: GFALVGVGSEASSKK [_GFALVGVGSEASSK(Dimethyl (K))K_]
- collision cross section [5]: 439.69 ± 1.2 Å²
- collision cross section [6]: 485.09 ± 1.2 Å²

Sequence: LGPNDQYK [_LGPNDQY(Nitro (Y))K_]
- collision cross section [8]: 332.94 ± 1.8 Å²

Sequence: LFVGGIKEDTEEHHLR [_LFVGGIK(hydroxyisobutyryl)EDTEEHHLR_]
- collision cross section [9]: 501.81 Å²
- collision cross section [10]: 546.81 ± 1.2 Å²

Sequence: DLSTVEALQNLKNLK [_DLSTVEALQNLK(Gluratylation)NLK_]
- collision cross section (charge state: 3, modification: Glutarylation): 545.2 Å²

Sequence: SGFGKFER [_SGFGK(Malonyl)FER_]
- collision cross section [13]: 335.56 Å²

Sequence: ISSNFSSIIAEKLR [_ISSNFSSIIAEK(GlyGly (K))LR_]
- collision cross section (charge state: 2, modification: GlyGly (K)): 443.53 ± 6.7 Å²
- collision cross section (charge state: 3, modification: GlyGly (K)): 502.71 ± 1.1 Å²

Sequence: VDVEVPDVSLEGPEGKLK [_VDVEVPDVSLEGPEGK(Dimethyl (K))LK_]
- collision cross section [5]: 459.72 ± 1.8 Å²
- collision cross section [6]: 548.43 ± 0.78 Å²

Sequence: LDHLAEKFR [_LDHLAEK(Trimethyl (K))FR_]
- collision cross section [2]: 436.32 ± 0.025 Å²

Sequence: VNVEAPDVNLEGLGGKLK [_VNVEAPDVNLEGLGGK(Malonyl)LK_]
- collision cross section [13]: 463.09 ± 1.4 Å²

Sequence: RGFGFGGFAISAGK [_R(Citrullination (R))GFGFGGFAISAGK_]
- collision cross section (charge state: 2, modification: Citrullination (R)): 391.71 ± 0.23 Å²

Sequence: GEVGAGAGPGAQAGPSAKR [_GEVGAGAGPGAQAGPSAK(Crotonyl)R_]
- collision cross section [14]: 426.44 ± 0.55 Å²
- collision cross section (charge state: 3, modification: Crotonyl): 497.45 ± 1.2 Å²

Sequence: YEQEHAAIQDKLFQVAK [_YEQEHAAIQDK(Formyl)LFQVAK_]
- collision cross section (charge state: 3, modification: Formyl): 510.23 ± 1.3 Å²

Sequence: GTVPDDAVEALADSLGKK [_GTVPDDAVEALADSLGK(Succinyl)K_]
- collision cross section [3]: 459.53 ± 1.1 Å²
- collision cross section [4]: 536.91 ± 2.2 Å²

Sequence: IVSGKDYNVTANSK [_IVSGK(Crotonyl)DYNVTANSK_]
- collision cross section [14]: 415.26 ± 1.1 Å²

Sequence: VNALKNLQVK [_VNALK(Succinyl)NLQVK_]
- collision cross section [3]: 370.5 ± 1.8 Å²

Sequence: SPDEAYAIAKK [_SPDEAYAIAK(Malonyl)K_]
- collision cross section [13]: 371.15 ± 0.62 Å²

Sequence: DFAFYNPRLQGK [_DFAFYNPR(Methyl (R))LQGK_]
- collision cross section [11]: 413.14 ± 0.67 Å²
- collision cross section [12]: 469.16 ± 2.2 Å²

Sequence: GSLGAQKLANTCFNEIEK [_GSLGAQK(hydroxyisobutyryl)LANTCFNEIEK_]
- collision cross section [9]: 476.97 ± 0.8 Å²
